Activity data for 1 substance are collected here from patent US5990092.

The target in this data set is GATA-6 (Homo sapiens) (UniProt Q92908). Nature of the data set: cell_activity. The note with it: luciferase transactivation in p53-/- MEFs.
Sequence of GATA-6 (Homo sapiens) (Q92908 147-595): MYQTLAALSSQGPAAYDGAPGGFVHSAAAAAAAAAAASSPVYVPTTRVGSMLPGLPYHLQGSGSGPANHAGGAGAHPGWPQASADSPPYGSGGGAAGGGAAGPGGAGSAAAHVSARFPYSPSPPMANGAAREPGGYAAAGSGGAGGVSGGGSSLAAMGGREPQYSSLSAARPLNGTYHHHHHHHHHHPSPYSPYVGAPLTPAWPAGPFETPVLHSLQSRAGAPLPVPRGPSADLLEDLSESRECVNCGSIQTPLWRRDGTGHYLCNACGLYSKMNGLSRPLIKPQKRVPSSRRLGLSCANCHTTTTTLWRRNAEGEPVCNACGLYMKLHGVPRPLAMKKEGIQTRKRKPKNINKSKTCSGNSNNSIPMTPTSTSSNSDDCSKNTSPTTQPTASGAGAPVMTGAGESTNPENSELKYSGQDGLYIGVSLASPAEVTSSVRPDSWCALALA

Regarding p21 promoter 3.8 kbp, the activity is 3.7 fold.
